Reference: US20130281922A1 (KANCERA, published 2013)

Target: T1, human ROR1 on cells (human, UniProt Q01973 30-937)
T1 construct: whole, on cells
Experiment: Scatchard plot of 125I-labelled 009-G03 binding to RPMI-8226 cells, 2.5 h on ice
Experimental: Antibody was labelled with ¹²⁵I using free Iodine and test tubes pre-coated with the oxidant reagent Iodogen (1,3,4,6-tetrachloro-3α,6α-diphenylglycoluri, Thermo scientific), according to manufactures instruction. Briefly 200 μg of antibody was labeled for 10 minutes in PBS and free iodine were removed using a small disposable desalting columns (NAP 5, GE Healthcare Life science). […] 0.5×10⁶ cells were incubated for 2.5 h on ice with different concentrations of ¹²⁵I-labelled 009-G03 antibody. Free nonbinding antibody (F) was separated from cell bound antibody (B) by centrifugation through a 40% Ficoll-cushion and samples were analysed in a gamma counter (FIG. 29).

T1 sequence (Q01973 30-937): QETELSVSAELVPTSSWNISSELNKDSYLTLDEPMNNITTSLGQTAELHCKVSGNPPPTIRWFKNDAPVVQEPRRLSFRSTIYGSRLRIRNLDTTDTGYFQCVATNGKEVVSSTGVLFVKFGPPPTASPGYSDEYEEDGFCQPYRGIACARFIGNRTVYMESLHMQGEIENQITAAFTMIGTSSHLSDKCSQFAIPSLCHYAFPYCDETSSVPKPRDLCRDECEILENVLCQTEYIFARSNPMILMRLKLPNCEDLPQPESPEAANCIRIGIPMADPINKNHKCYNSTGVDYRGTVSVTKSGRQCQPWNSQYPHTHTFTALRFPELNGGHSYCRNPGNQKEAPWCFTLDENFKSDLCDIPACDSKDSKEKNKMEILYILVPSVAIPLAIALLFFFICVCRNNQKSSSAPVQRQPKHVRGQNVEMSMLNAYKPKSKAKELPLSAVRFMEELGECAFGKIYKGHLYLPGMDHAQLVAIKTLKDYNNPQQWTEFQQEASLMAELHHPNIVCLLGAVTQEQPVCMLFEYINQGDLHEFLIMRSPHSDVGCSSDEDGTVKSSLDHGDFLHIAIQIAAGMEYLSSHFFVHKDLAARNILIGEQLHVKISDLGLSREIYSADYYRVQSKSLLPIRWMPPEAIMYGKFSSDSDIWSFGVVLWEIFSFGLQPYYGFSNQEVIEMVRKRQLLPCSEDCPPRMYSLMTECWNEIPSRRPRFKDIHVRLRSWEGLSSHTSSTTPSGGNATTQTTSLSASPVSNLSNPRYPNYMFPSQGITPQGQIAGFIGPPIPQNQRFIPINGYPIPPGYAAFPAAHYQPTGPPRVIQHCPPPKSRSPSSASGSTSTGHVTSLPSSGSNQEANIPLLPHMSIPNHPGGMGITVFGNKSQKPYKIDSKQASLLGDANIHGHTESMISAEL

B1: ROR1-009-G03 (antibody, V domains shown)
VH: EVQLLESGGGLVQPGGSLRLSCAASGFTFSDYYMSWIRQAPGKGLEWVSAISGSGGSTYYADSVKGRFTISRDNSKNTLYLQMNSLRAEDTAVYYCAKEDWEGASFDYWGQGTLVTVSS
VL: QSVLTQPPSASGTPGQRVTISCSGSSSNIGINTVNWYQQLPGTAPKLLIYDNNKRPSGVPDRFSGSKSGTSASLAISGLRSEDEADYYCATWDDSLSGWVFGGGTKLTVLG
notes: also called ROR 009 G03; ROR1 specific mAb 009-G03
B1 was tested, and the Kd was 1 nM.
